{"source": "patent US20170037111A1", "about": "“Novel peptides and combination of peptides for use in immunotherapy against ovarian cancer and other cancers” (immatics biotechnologies GmbH, priority 2015, published 2017)"}
{"target": "HLA-A*02:01 (Homo sapiens, UniProt P04439, D140Y/D185E/D98H/E176V/E277Q/G131W/G231S/I119V/I121R/I166T/I218V/L300P/L318F/N151K/N90K/P208A/P217A/Q86G/Q94H/R138H/R169H/T345S)", "assay": "MHC binding assay (UV-ligand exchange, β2m ELISA, peptide exchange yield)", "conditions": "MHC class I binding score; binding to HLA-A*02:01 ranged by peptide exchange yield (UV-ligand exchange, β2m ELISA)", "description": "Candidate peptides for T cell based therapies according to the present invention were further tested for their MHC binding capacity (affinity). The individual peptide-MHC complexes were produced by UV-ligand exchange, where a UV-sensitive peptide is cleaved upon UV-irradiation, and exchanged with the peptide of interest as analyzed. Only peptide candidates that can effectively bind and stabilize the peptide-receptive MHC molecules prevent dissociation of the MHC complexes. To determine the yield of the exchange reaction, an ELISA was performed based on the detection of the light chain (β2m) of stabilized MHC complexes. The assay was performed as generally described in Rodenko et al. (Rodenko et al., 2006).\n96 well MAXISorp plates (NUNC) were coated over night with 2 ug/ml streptavidin in PBS at room temperature, washed 4× and blocked for 1h at 37° C. in 2% BSA containing blocking buffer. […] Peptide-MHC monomers of the UV-exchange reaction were diluted 100 fold in blocking buffer. Samples were incubated for 1h at 37° C., washed four times, incubated with 2 ug/ml HRP conjugated anti-β2m for 1h at 37° C., washed again and detected with TMB solution that is stopped with […]. Absorption was measured at 450 nm. Candidate peptides that show a high exchange yield (preferably higher than 50%, most preferred higher than 75%) are generally preferred for a generation and production of antibodies or fragments thereof, and/or T cell receptors or fragments thereof, as they show sufficient avidity to the MHC molecules and prevent dissociation of the MHC complexes."}
{"substance": "153 (FLIANVLYL; listed as Homo sapiens) [compound 153]", "Peptide exchange": "″+″ (≧10% = +)"}
{"substance": "542 (RVWDISTVSSV; listed as Homo sapiens) [compound 542]", "Peptide exchange": "″+++″ (≧50% = +++)"}
{"substance": "204 (KIAENVEEV; listed as Homo sapiens) [compound 204]", "Peptide exchange": "″++″ (≧20% = ++)"}
{"substance": "232 (ALLEAQDVELYL; listed as Homo sapiens) [compound 232]", "Peptide exchange": "″++″ (≧20% = ++)"}
{"substance": "99 (ALVSKGLATV; listed as Homo sapiens) [compound 99]", "Peptide exchange": "″++″ (≧20% = ++)"}
{"substance": "356 (KLLGKLPEL; listed as Homo sapiens) [compound 356]", "Peptide exchange": "″+++″ (≧50% = +++)"}
{"substance": "471 (YLYNNMIAKI; listed as Homo sapiens) [compound 471]", "Peptide exchange": "″+++″ (≧50% = +++)"}
{"substance": "449 (KLAEGLDIQL; listed as Homo sapiens) [compound 449]", "Peptide exchange": "″+++″ (≧50% = +++)"}
{"substance": "351 (SLIPNLRNV; listed as Homo sapiens) [compound 351]", "Peptide exchange": "″+++″ (≧50% = +++)"}
{"substance": "59 (IMEDIILTL; listed as Homo sapiens) [compound 59]", "Peptide exchange": "″+++″ (≧50% = +++)"}
{"substance": "469 (YLASDEITTV; listed as Homo sapiens) [compound 469]", "Peptide exchange": "″+++″ (≧50% = +++)"}
{"substance": "94 (YLIDIKTIAI; listed as Homo sapiens) [compound 94]", "Peptide exchange": "″++″ (≧20% = ++)"}
{"substance": "622 (RLLGEEVVRVLQA; listed as Homo sapiens) [compound 622]", "Peptide exchange": "″+++″ (≧50% = +++)"}
{"substance": "219 (KLSDIGITV; listed as Homo sapiens) [compound 219]", "Peptide exchange": "″+++″ (≧50% = +++)"}
{"substance": "459 (ALITEVVRL; listed as Homo sapiens) [compound 459]", "Peptide exchange": "″++″ (≧20% = ++)"}
{"substance": "525 (VLLEAGEGLVTI; listed as Homo sapiens) [compound 525]", "Peptide exchange": "″+++″ (≧50% = +++)"}
{"substance": "409 (LLDAMNYHL; listed as Homo sapiens) [compound 409]", "Peptide exchange": "″++″ (≧20% = ++)"}
{"substance": "350 (ALLDVTHSELTV; listed as Homo sapiens) [compound 350]", "Peptide exchange": "″+++″ (≧50% = +++)"}
{"substance": "151 (KILQQLVTL; listed as Homo sapiens) [compound 151]", "Peptide exchange": "″+++″ (≧50% = +++)"}
{"substance": "514 (ILVDWLVQV; listed as Homo sapiens) [compound 514]", "Peptide exchange": "″+++″ (≧50% = +++)"}
{"substance": "465 (QLCDLNAEL; listed as Homo sapiens) [compound 465]", "Peptide exchange": "″+++″ (≧50% = +++)"}
{"substance": "51 (LLPDLEFYV; listed as Homo sapiens) [compound 51]", "Peptide exchange": "″++++″ (≧75% = ++++)"}
{"substance": "54 (SLLEQGKEPWMV; listed as Homo sapiens) [compound 54]", "Peptide exchange": "″+++″ (≧50% = +++)"}
{"substance": "461 (VMFRTPLASV; listed as Homo sapiens) [compound 461]", "Peptide exchange": "″++″ (≧20% = ++)"}
{"substance": "172 (VLYSYTIITV; listed as Homo sapiens) [compound 172]", "Peptide exchange": "″++″ (≧20% = ++)"}
{"substance": "608 (SLLSVSHAL; listed as Homo sapiens) [compound 608]", "Peptide exchange": "″+++″ (≧50% = +++)"}
{"substance": "200 (LLFGSVQEV; listed as Homo sapiens) [compound 200]", "Peptide exchange": "″+++″ (≧50% = +++)"}
{"substance": "564 (TVTNAVVTV; listed as Homo sapiens) [compound 564]", "Peptide exchange": "″+++″ (≧50% = +++)"}
{"substance": "347 (SLFKHDPAAWEA; listed as Homo sapiens) [compound 347]", "Peptide exchange": "″++++″ (≧75% = ++++)"}
{"substance": "507 (KLIDDQDISISL; listed as Homo sapiens) [compound 507]", "Peptide exchange": "″+++″ (≧50% = +++)"}
{"substance": "488 (FLAEDPKVTL; listed as Homo sapiens) [compound 488]", "Peptide exchange": "″+++″ (≧50% = +++)"}
{"substance": "612 (YLYNEGLSV; listed as Homo sapiens) [compound 612]", "Peptide exchange": "″+++″ (≧50% = +++)"}
{"substance": "126 (VLAYFLPEA; listed as Homo sapiens) [compound 126]", "Peptide exchange": "″++++″ (≧75% = ++++)"}
{"substance": "227 (ALMNTLLYL; listed as Homo sapiens) [compound 227]", "Peptide exchange": "″++″ (≧20% = ++)"}
{"substance": "284 (ILLSQTTGV; listed as Homo sapiens) [compound 284]", "Peptide exchange": "″+++″ (≧50% = +++)"}
{"substance": "456 (LLIGHLERV; listed as Homo sapiens) [compound 456]", "Peptide exchange": "″+++″ (≧50% = +++)"}
{"substance": "216 (NLWEDPYYL; listed as Homo sapiens) [compound 216]", "Peptide exchange": "″+++″ (≧50% = +++)"}
{"substance": "361 (ALYELEGTTV; listed as Homo sapiens) [compound 361]", "Peptide exchange": "″+++″ (≧50% = +++)"}
{"substance": "398 (KLLEEDGTIITL; listed as Homo sapiens) [compound 398]", "Peptide exchange": "″++″ (≧20% = ++)"}
{"substance": "538 (LLLAHIIAL; listed as Homo sapiens) [compound 538]", "Peptide exchange": "″++″ (≧20% = ++)"}
{"substance": "597 (KLLEGQVIQL; listed as Homo sapiens) [compound 597]", "Peptide exchange": "″+++″ (≧50% = +++)"}
{"substance": "230 (ILVDWLVEV; listed as Homo sapiens) [compound 230]", "Peptide exchange": "″+″ (≧10% = +)"}
{"substance": "343 (SLLEVNEESTV; listed as Homo sapiens) [compound 343]", "Peptide exchange": "″+++″ (≧50% = +++)"}
{"substance": "15 (VLLTFKIFL; listed as Homo sapiens) [compound 15]", "Peptide exchange": "″++″ (≧20% = ++)"}
{"substance": "369 (GLFPEHLIDV; listed as Homo sapiens) [compound 369]", "Peptide exchange": "″+++″ (≧50% = +++)"}
{"substance": "96 (YIFTDNPAAV; listed as Homo sapiens) [compound 96]", "Peptide exchange": "″+++″ (≧50% = +++)"}
{"substance": "309 (GLFDGVPTTA; listed as Homo sapiens) [compound 309]", "Peptide exchange": "″+++″ (≧50% = +++)"}
{"substance": "570 (ALANQIPTV; listed as Homo sapiens) [compound 570]", "Peptide exchange": "″++″ (≧20% = ++)"}
{"substance": "207 (GLTSTNAEV; listed as Homo sapiens) [compound 207]", "Peptide exchange": "″++″ (≧20% = ++)"}
{"substance": "566 (VIADGGIQNV; listed as Homo sapiens) [compound 566]", "Peptide exchange": "″++″ (≧20% = ++)"}
{"substance": "149 (NLLELFVQL; listed as Homo sapiens) [compound 149]", "Peptide exchange": "″+++″ (≧50% = +++)"}
{"substance": "128 (YLFDDPLSAV; listed as Homo sapiens) [compound 128]", "Peptide exchange": "″++″ (≧20% = ++)"}
{"substance": "552 (GLLDLPFRVGV; listed as Homo sapiens) [compound 552]", "Peptide exchange": "″++++″ (≧75% = ++++)"}
{"substance": "399 (YLFEPLYHV; listed as Homo sapiens) [compound 399]", "Peptide exchange": "″+++″ (≧50% = +++)"}
{"substance": "154 (ALDDGTPAL; listed as Homo sapiens) [compound 154]", "Peptide exchange": "″++″ (≧20% = ++)"}
{"substance": "257 (SIFSAFLSV; listed as Homo sapiens) [compound 257]", "Peptide exchange": "″+++″ (≧50% = +++)"}
{"substance": "426 (RLADKSVLV; listed as Homo sapiens) [compound 426]", "Peptide exchange": "″+++″ (≧50% = +++)"}
{"substance": "547 (TLDITPHTV; listed as Homo sapiens) [compound 547]", "Peptide exchange": "″+++″ (≧50% = +++)"}
{"substance": "279 (ALWGGTQPLL; listed as Homo sapiens) [compound 279]", "Peptide exchange": "″++″ (≧20% = ++)"}
{"substance": "119 (FLYIGDIVSL; listed as Homo sapiens) [compound 119]", "Peptide exchange": "″++++″ (≧75% = ++++)"}
{"substance": "299 (YLLETSGNL; listed as Homo sapiens) [compound 299]", "Peptide exchange": "″+++″ (≧50% = +++)"}
{"substance": "21 (VLDELDMEL; listed as Homo sapiens) [compound 21]", "Peptide exchange": "″++″ (≧20% = ++)"}
{"substance": "467 (FLAKDFNFL; listed as Homo sapiens) [compound 467]", "Peptide exchange": "″+++″ (≧50% = +++)"}
{"substance": "135 (ALSEVDFQL; listed as Homo sapiens) [compound 135]", "Peptide exchange": "″+++″ (≧50% = +++)"}
{"substance": "201 (RLVDYLEGI; listed as Homo sapiens) [compound 201]", "Peptide exchange": "″+++″ (≧50% = +++)"}
{"substance": "578 (FLDPGGPMMKL; listed as Homo sapiens) [compound 578]", "Peptide exchange": "″+++″ (≧50% = +++)"}
{"substance": "306 (ALVNVQIPL; listed as Homo sapiens) [compound 306]", "Peptide exchange": "″+++″ (≧50% = +++)"}
{"substance": "334 (TLTKVLVAL; listed as Homo sapiens) [compound 334]", "Peptide exchange": "″+++″ (≧50% = +++)"}
{"substance": "620 (KLLNKIYEA; listed as Homo sapiens) [compound 620]", "Peptide exchange": "″++++″ (≧75% = ++++)"}
{"substance": "245 (SMIDDLLGV; listed as Homo sapiens) [compound 245]", "Peptide exchange": "″+++″ (≧50% = +++)"}
{"substance": "448 (NLLETKLQL; listed as Homo sapiens) [compound 448]", "Peptide exchange": "″+++″ (≧50% = +++)"}
